{
  "source": "paper PMC3630801",
  "molecular_target": "TonB_(ΔTMD) L194C labeled with BODIPY FL (Escherichia coli) (UniProt P02929)",
  "assay": "fluorescence polarisation",
  "data": [
    {"substance": "BtuB with bound colicin E3 receptor-binding fragment (ColE3R) (from UniProt P06129 21-614; P00646 1-551) (complex)", "values": [
      {"measurement": "Kd", "result": 1500, "unit": "nM"}
    ]}
  ]
}
